{"source": "the DeepSol protein solubility set", "data": [{"test": "soluble on expression in E. coli; label from the status in PepcDB or PDB records", "values": [{"sequence": "MSLKTIHITHPHHLIKEEQAKSVMALGYFDGVHLGHQKVIGTAKQIAEEKGLTLAVMTFHPHPSHVLGRDKEPKDLITPLEDKINQIEQLGTEVLYVVKFNEVFASLSPKQFIDQYIIGLNVQHAVAGFDFTYGKYGKGTMKTMPDDLDGKAGCTMVEKLTEQDKKISSSYIRTALQNGDVELANVLLGQPYFIKGIVIHGDKRGRTIGFPTANVGLNNSYIVPPTGVYAVKAEVNGEVYNGVCNIGYKPTFYEKRPEQPSIEVNLFDFNQEVYGAAIKIEWYKRIRSERKFNGIKELTEQIEKDKQEAIRYFSNLRKEGGSHHHHHH", "soluble on expression in E. coli": "soluble"}, {"sequence": "VKSYKSGASAIDVIVTTPDIARINAIAAMKKGSALTTEETMQVPAAGWPVMIFSHGITSYKETVLAISGTLASQGIATISIDHPYHGARGIDFNADGVYEISATSSLSDSDPAYVNANVTSYMNLASLLTARDNVRQSEVDLLALRLSLNSVNLAGQLDATKVSFLGHSLGAITGIPVMALANSGI", "soluble on expression in E. coli": "not soluble"}, {"sequence": "MGHHHHHHSHMKFEAFKIVPVGYIRKEKNVFIEILPEFREGMEGLREGDWIKLILWFHKSDTPELRRILKVHPHGNPENPLTGVFATRSPFRPNPYTVKVHKIEGNRIYIDWIDAEDGTPVSDIKIFPERYDCPKENYQSTSRLKS", "soluble on expression in E. coli": "soluble"}, {"sequence": "GAKNYYDITLALAGICQSARLVQQLAHQGHCDADALHVSLNSIIDMNPSSTLAVFGGSEANLRVGLETLLGVLNASSRQGLNAELTRYTLSLMVLERKLSSAKGALDTLGNRINGLQRQLEHFDLQSETLMSAMAAIYVDVISPLGPRIQVTGSPAVLQSPQVQAKVRATLLAGIRAAVLWHQVGGGRLQLMFSRNRLTTQAKQILAHLTPEL", "soluble on expression in E. coli": "soluble"}, {"sequence": "MGSDKIHHHHHHMKLLILGNHTCGNRGDSAILRGLLDAINILNPHTEVDVMSRYPVSSSWLLNRPVMGDPLFLQMTQHNSAAGVVGRIKKVLRRRYQHQVLLSRVTDTGKLRNIAIAQGFTDFVRLLSGYDAIIQVGGSFFVDLYGVPQFEHALCTFMAKKPLFMIGHSVGPFQDEQFNQLANYVFGHCDALILRESVSLDLMKRRNITTAKVEHGVDTAWLVDHHTEDFTASYAVQHWLDVAAQQKTVAITLRELAPFDKRLGTTQQAYEKAFAGVVNRILDEGYQVIALSTCTGIDSYNKDDRMVALNLRQHISDPARYHVVMDELNDLEMGKILGACELTVGTRLHSAIISMNFATPAIAINYEHKSAGIMQQLGLPEMAIDIRHLLDGSLQAMVADTLGQLPVLNARFNEAVSRERQTGMQMVQSVLERIGEVK", "soluble on expression in E. coli": "not soluble"}, {"sequence": "MLPEYGPLAPSEEELHLFGDVDRLKVLEIGCGSGHSLKYLDEKQAGELWGIDLSTKQIEAAQTVLKDSKAPVTLFESPMEVNPGLPTDYFDIVFSIYALGWTTNLTKTLENVYRYLKPGGSFIFSWEHPMYNRVRQHQHGLTVDKSYHEEGAYAHEAWSSPAIMQQYRLSTYLNHLIDHGFKVERVIEDVCLADAQKHTNGWYGYEKAQMIPTTLIIKCLKQLEHHHHHH", "soluble on expression in E. coli": "soluble"}, {"sequence": "MIATKDIRIEKDFLGEKEVPSIAYYGVQTLRAVENFPITGYRIHPSLITAMAIVKKAAALANMDTGYLAKDIGHEIAEAAQEIVDGKFHDQFIVDPIQGGAGTSINMNTNEVIANRALERMGYEKGEYAKISPNTHVNMAQSTNDAFPTGIHIATLMRLEELLITMEELHAAFRAKAKEFDHVIKMGRTHLQDAVPIRLGQEFEAYSRVLARDIKRIKQSRQHLYEVNMGATAVGTGLNANPTYIEQVVKHLRTFSGFPLVGAEHLVDATQNTDAYTEVSAALKVCMMNMSKIANDLRIMASGPRVGLAEIQLPARQPGSSIMPGKVNPVMAEVINQVAFQVIGNDHTICLASEAGQLELNVMEPVLVFNLIQSISIMNNGFRVFREYCIKGITANEELLKQYVEKSVGIITAVNPHIGYEAASRIAREAIETGKSVRELCLEHGVLTEEELDIILDPFEMTHPEIAGASLLKDKKM", "soluble on expression in E. coli": "not soluble"}, {"sequence": "LSIPEDYQARLQPNRVEGSYPLVRMEFTGATVDAPLMSQISRKYNIDVSILSSDLDYAGGVKFGMMVAELFGNEQDDSAAIEYLREHNVKVEVLGYVL", "soluble on expression in E. coli": "soluble"}, {"sequence": "MTAVVSNREEDSMNNEPSLSGRAIIGLIYPPPDIRTIVDKTARFAAKNGVDFENKIREKEAKNPKFNFLSITDPYHAYYKKMVYDFSEGRVEAPKVPQAVKEHVKKAEFVPSAPPPAYEFSADPSTINAYDLDLIRLVALFVARNGRQFLTQLMTREARNYQFDFLKPAHCNFTYFTKLVDQYQKVLVPSTNVVAQLQDDATNKKRLIEDINYRVSWEKHQKGLKDREEAEAEKERQAYASIDWHDFVVVQTVDFQPGDTSQLPPLCTPKDVGARILLEARNEMQKAAAEMQEMDMEESDSDDEDAVQAPEAPAFTAPLPPTKQKDVIVRDYDPKRNVTQKPKAVENWIISPLTGERIPSDKLAEHVRYNTVDSQYKEDRDRHIGERSTEEPVLALGADISRNLGNFAERRTDIFGVGGEQTMIGKKLGEEDNSQQGQNKLIWDGTEETRDMITRAVQNKVTLDQQINEIHRQHGFVADPSKEKIGAQQVPRHQSTQGNVTITQGITNIPGQMPSGWPPVPPMGMPGMPNQALPPIRQMDFGGGPPAKRPRTEDDLIPEADWLKKVNGAISLNVHLPQAPEHGMDGSIVQFTIQVTAPMSELKQQIQDRYGMPVGKQKLMSDGLFVKDNMSSAFYNLADRTAIYLQVKERGGKKK", "soluble on expression in E. coli": "not soluble"}, {"sequence": "MSLVSIDLPIEGRLARYDLTGRPVPFNSRDAKAFSRVAFAAAHVVADPLADNDPWLAPAIDWERTLAFRHRLWDLGLGVAESMDTAQRGMGLGWPEARELIRRSLAEARGRPDALIACGAGTDHLAPGPDVSIDDILAAYESQIEAIEAEGGRIILMASRALAAAAKGPEDYIRVYDRVLSQVKEPVIIHWLGEMFDPALEGYWGNADHMAAMKTCLDVLEAHAAKVDGIKISLLSKEKEIVMRRQLPKGVRMYTGDDFNYAELIAGDEEGHSDALLGIFDAIAPVASAALEALGSGRNGEFFELLEPTVPLSRHIFKAPTRFYKTGVVFLAYLNGLQDHFVMIGGQQSARSLVHLAELFRLADKAGALADPELATARMRRVLAMHGVEEGHHHHHH", "soluble on expression in E. coli": "soluble"}, {"sequence": "MVGYAEPVLIERQSVVAAPAEQVWQRVVTPEGINDELRPWMTMSVPRGAKGMTVDTVPIGAPIGRAWLRLFGVLPFDYDRLSIAELEPGRRFREDSTMLSMRQWQHERTVTPEGDTKTIVRDRITFQTRAGLRFAAPLIAAGLRALFGHRHRRLQRHFAQGLEHHHHHH", "soluble on expression in E. coli": "soluble"}, {"sequence": "MEIERINEHTVKFYISYVDIEERGFDREEIWYNRERSEELFWEMMDEVHGESDFSLDGPLWIQVQALEKGLEVVVTKAQLSKDGSKLELPLPEEKWREFSLSADEKVESLFGHHFHFGQNGDAEEREEQDVLRFILSFKDIEDVISLAHRADFSRLSNRLFQFEGRYYLFVEFDERYTEQEVDNMLSLLLEYGSDSQLTIYRLEEYGTEIMGDNALETIKTYFPAS", "soluble on expression in E. coli": "not soluble"}, {"sequence": "MRRRVGLGAIQQQKLAAEKYKDKGTDLQENQLEQMTKQMEVFRVKLEEFAMKHKEDIRKNSQFRKQFQEMCAAIGVDPLATGKGFWSVLGMGDFYYELGVQVVEVCLAANHKTGGLMELDDLRRRLIAARGQSSVHQEITKEDILMAAKKLSIFGNGFVVHKLGKGKYIVQSIPGELSMEETNILNAASNTEQGCVTQSQLIKDLGWTDYRAQQSLDKVLGEGLCWIDKQAGDEPAYWFPSLFPGRNAQTTAATAAAAAALEHHHHHH", "soluble on expression in E. coli": "not soluble"}, {"sequence": "MGSDKIHHHHHHMTIDNQTGLVLEGGGMRGVFTCGVLDYLMDHDIRFPYTIGVSAGACNGLSYMSRQRGRAKYSNIDLLEKYHYIGLKHLLKKRNILDFDLLFTEFPEHILPYDYQAYFDSPERYVMVTTNCLTGEADYFEEKKDKNRVIDIVRASSSLPFVCPIAYVDGIPMLDGGIVDSIPLQRAIHDGYRNNVVVLTRNRGYRKENKDIRIPPFVYRKYPKMREALSRRCAAYNAQLEMVERMEEEGDILVIRPQKPVVVDRIERDIQKLTDLYEEGYECAKRQFEVL", "soluble on expression in E. coli": "not soluble"}, {"sequence": "KPYQVVGEKQEILNLIDNTTLDVSFTLPVSYAESVSLSALKNAEMWVTMDSEPSKRIPGKFKEISTQPNIDTNSYEAIVTITRPTDRNLLTGMTGQVHIAKQNKSNAMTLPTSAWVNKQEKQGEVWVMDSSTQQVSKVTLSLNESGAIESGLDNNDYVVIAGVERLVEGQVVKAWIREEGI", "soluble on expression in E. coli": "not soluble"}, {"sequence": "QHLNALMNKEILGKKPGKKKKDKTKRPVLYVIDFSGDIKATQVEQLRDEVTSVLSIAKPEDEVLVRLESPGGAVNGYGLAASQLQRIRDKKIPLTVSIDKMAASGGYLMACVANKIIAAPFAIIGSIGVVAQIPNFHRWLKKNNIDVELLTAGEYKRTLTLFAENTEKGRKKFQEDLEKIHTAFREYVLKNRSQLDIDKVATGEHWIAKDAFDLRLVDKLATSDE", "soluble on expression in E. coli": "not soluble"}, {"sequence": "MSLSDLPDDIFQIIVKKLGDEDFNHLGPIIRSNKRGRDIGLSREILKSANLMGMCLHPPNIFPGQLFRNFFVRCLEFENATAMYYEAIRLIVREENVMGSLFLLNQLVPTYDYATIAYAFFQMCAGRGDLAGTTFDTIFEQNSVSRWGSIYSFELEVKCEALIDTIMDFQPHFGMTFAPDWKFASSDCLSISECPDWHGVEYFCEGCYIYYVALRILEVL", "soluble on expression in E. coli": "soluble"}, {"sequence": "MDSKEVLVHVKNLEKNKSNDAAVLEILHVLDKEFVPTEKLLRETKVGVEVNKFKKSTNVEISKLVKKMISSWKDAINKNKRSRQAQQHHQDHAPGNAEDKTTVGESVNGVQ", "soluble on expression in E. coli": "soluble"}, {"sequence": "SDKFLVRPDLRDLQGGGEEPAPTGGASGDLKSPDWRHLRAEGLSCDYTVLFGKAEADKIFRELEQEVEYFTGALAKVQVFGKWHSVPRKQATYGDAGLTYTFSGLTLTPKPWVPVLERVRDRVCEVTGQTFNFVLVNRYKDGCDHIGEHRDDERELAPGSPIASVSFGACRDFIFRHKDSRGKRPRRTVEVVRLQLAHGSLLMMNPPTNTHWYHSLPIRKRVLAPRVNLTFRKILPTKK", "soluble on expression in E. coli": "soluble"}, {"sequence": "MSLGLTTKPLSLKVNAALFDVDGTIIISQPAIAAFWRDFGKDKPYFDAEHVIQVSHGWRTFDAIAKFAPDFANEEYVNKLEAEIPVKYGEKSIEVPGAVKLCNALNALPKEKWAVATSGTRDMAQKWFEHLGIRRPKYFITANDVKQGKPHPEPYLKGRNGLGYPINEQDPSKSKVVVFEDAPAGIAAGKAAGCKIIGIATTFDLDFLKEKGCDIIVKNHESIRVGGYNAETDEVEFIFDDYLYAKDDLLKWEGHHHHHH", "soluble on expression in E. coli": "soluble"}, {"sequence": "MGHHHHHHGSRKGAELGILIKNADALEVAEKVTAVIFDKTGTLTKGKPEVTDLVPLNGDERELLRLAAIAERRSEHPIAEAIVKKALEHGIELGEPEKVEVIAGEGVVADGILVGNKRLMEDFGVAVSNEVELALEKLEREAKTAVIVARNGRVEGIIAVSDTLKESAKPAVQELKRMGIKVGMITGDNWRSAEAISRELNLDLVIAEVLPHQKSEEVKKLQAKEVVAFVGDGINDAPALAQADLGIAVGSGSDVAVESGDIVLIRDDLRDVVAAIQLSRKTMSKIK", "soluble on expression in E. coli": "soluble"}, {"sequence": "RDTCVTLLLDNSGSMRGRPISIAAICADVLARTLERCQVKVEILGFTTRAWKGGQSREKWLAAGRPQQPGRLNDLRHIVYKGADAPWRRARENLGLMMKEGLLKENIDGEALEWAHRRLSSRAETRKILMVISDGAPVDDSTLSVNPASYLEKHLRDVIAMVERKRQVELIAIGIGHDVTRYYARAVTITDVEQLAGAMTEQLASLFDADPKKRIGKRRVA", "soluble on expression in E. coli": "not soluble"}]}]}
